Laboratory results as given in US20140179594A1, “STREPTOCOCCUS BACTERIOPHAGE LYSINS FOR TREATMENT OF GRAM POSITIVE BACTERIA IN COMPANION ANIMALS AND LIVESTOCK” (priority 2011, published 2014).

Key:
Type in all cases: cell-based
S. suis strain (7711) = experiment: PlySs1 optimal biochemical conditions, turbidity reduction (OD600); conditions: for pH of maximal lysis: bis-tris-propane (BTP) buffer
Method: FIGS. 11A and 11B depicts ΔPlySs1 pH dependence. (A) Cells of host strain 7711 were suspended in phosphate citrate buffer (40/20 mM) at a range of pH-values from 4.6 to 8.0. ΔPlySs1 was added (110 μg/ml) and OD600 was measured over 60 min (horizontal axis) at 37° C. The vertical axis represents the treated/untreated OD600-ratio at each timepoint. For each pH-value, the curve depicts the running average of 3 independent experiments. Overall, activity was maximal at the upper end of the buffering range. (B) Here, bis-tris-propane (40 mM) was employed as the buffering agent with a pH-range from 7.0 to 9.7; ΔPlySs1 was again added to 110 μg/ml. Each curve depicts the running average of 3 experiments.
FIG. 12 depicts ΔPLySS1 NaCl dependence. S. suis 7711 cells were suspended in phosphate-citrate buffer pH=7.8 (40/20 mM). NaCl was added to the above concentrations, followed by ΔPlySs1 at 110 μg/ml. Optical density at 600 nm was observed over 60 min at 37° C. In this figure, the vertical axis represents the treated/untreated OD600-ratio for each NaCl concentration, averaged over 3 independent experiments.
FIGS. 13A and 13B provides assessment of ΔPlySs1 DTT and EDTA susceptibility. (A) ΔPlySs1 was pre-incubated for 1 hr with 5 mM DTT (a large molar excess) prior to addition to 7711 cells; activity was unchanged. (B) Here, various concentrations of EDTA were included in the buffered suspension of cells prior to addition of ΔPlySs1 (110 μg/ml lysin). For both images, the vertical axis represents the treated/untreated OD600-ratio for each condition, averaged over 3 independent experiments.
(A) A ΔPlySs1 stock solution was held at each of the above temperature for 30 minutes, followed by addition to 7711 cells (270 μg/ml final enzyme concentration, final temperature=37° C., ideal buffering conditions). The curves in this image represent running averages of 3 individual experiments. In each case, complete loss of activity was observed between the 45° C. and 50° C. samples. The 3 hottest samples show a slightly higher OD600 reading than the untreated control due to flocculation of ΔPlySs1 upon denaturation. (B) The above experiment was repeated, but with 6 hours of heat-treatment prior to the assay. […] The 40° C. sample maintained essentially native activity.
The optimal biochemical conditions for PlySs1 were determined against live cells of the encoding S. suis strain (7711). For these experiments, activity was gauged through the degree of turbidity reduction (OD600) of an aqueous bacterial suspension following the addition of lysin. The pH-dependence of the enzyme was first addressed using two buffer sets with adjacent pH ranges, citrate/phosphate: 4.6-8.0; and bis-tris-propane (BTP): 7.0-9.7. An extended spectrum of lysis was observed, from 5.4-9.4 (FIG. 11A). In BTP, lysis was maximal from 8.2-9.0; at commensurate pH-values, however, the magnitude of the OD-drop was slightly more pronounced in citrate/phosphate (FIG. 11B).
At constant enzyme concentrations, bacteriolysis varied little from 0-1000 mM NaCl, with only small numeric increases under the most hypotonic conditions (FIG. 12). […] The thermal stability of PlySs1 was examined by incubating the enzyme at various elevated temperatures prior to use (the OD-drop experiment itself was always conducted at 37° C.). When held at 35° C.-60° C. for 30 min, lysin activity was virtually unaffected until 50° C., at which point it was completely abolished (FIG. 14A). […] The latter corresponds to typical porcine body temperature.

S. suis 5735 (ST2) = experiment: ΔPlySs1 CFU analysis; conditions: 1 hr
Method: (§1) Given the above experiments, the following optimal buffering conditions were employed for all further in vitro experiments with ΔPlySs1: 20 mM phosphate buffer, pH=7.8, 2 mM EDTA. A range of lysin concentrations, from 6.5-130 μg/ml, were introduced to live S. suis cells in this buffer. Three strains were considered particularly relevant: 7711, the serotype 7 strain that encodes PlySs1; 5735, the serotype 2 reference strain; and 7997, a highly virulent serotype 9 strain. In terms of bacterial viability, only the highest PlySs1-concentration (130 μg/ml) led to a >90% decrease in CFUs for 7711, S735, and 7997 after 1 hr treatment (TABLE 2). The lysin was also tested against actively-dividing cells in broth culture (strain 7711) (FIG. 20).
(§2) For two ΔPlySs1 concentrations (130 and 13 μg/ml), CFU analysis was conducted on S. suis strains 5735, 7997, and 7711 after 1 hr treatment (optimal buffering conditions). In each experiment, the percentage-decrease in CFUs was determined for the treated sample versus the untreated. The range of the values observed (across 3 independent experiments) is reported here for each strain. The serotype of each strain is indicated in parentheses.

S. suis 7711 (ST7) = experiment: ΔPlySs1 CFU analysis; conditions: 1 hr
Method: as §1, §2

S. suis 7997 (ST9) = experiment: ΔPlySs1 CFU analysis; conditions: 1 hr
Method: as §1, §2

S. pyogenes A486 = experiment: ΔPlySs1 OD600 lysis, 1 hr
S. pyogenes D471 = experiment: ΔPlySs1 OD600 lysis, 1 hr
S. equi 9528 = experiment: ΔPlySs1 OD600 lysis, 1 hr
[1] = system: Group E streptococci K131; experiment: ΔPlySs1 OD600 lysis, 1 hr
S. mutans U159 = experiment: ΔPlySs1 OD600 lysis, 1 hr

B1: ΔPlySs1: truncated PlySs1 lysin with N-terminal enzymatic and central binding domains, N-terminal 254 amino acids, SEQ ID NO:2 (protein, listed as Streptococcus suis)
chain: MTINLETSIRWMSDRVGKVSYSMDYRNGPNSYDCSSAVYYALMAGGAISAGWAVNTEYMHDWLIRNGYVLVAENKPFNAQRHDVCILGKRGYSSGAGGHVVIFVDNVNVIHCNYARNGISIDNYNQVHRGMYYYLYRPANQPSISNKSLDQLVKETLAGVHGNGDTRKASLGSQYEAVMAVINGKASASEKSDEELAREVLAGKHGAGEDRKRSLGPRYEPVQAKVNELLKAKEKPSETAKNEPQTVQFKEDGDL
S. suis strain (7711); 0-1000 mM NaCl, constant enzyme concentration
  effect of salt concentration on bacteriolysis: varied little
S. suis strain (7711); 6-hr incubation at 40° C.
  thermal stability, activity after heat treatment: unaffected
S. suis strain (7711); 6-hr incubation at 45° C.
  thermal stability, activity after heat treatment: partial decrease in activity
S. suis strain (7711); S. suis 7711
  pH of maximal lysis: 9.0
S. suis strain (7711); S. suis 7711, listed as PlySs1
  pH of maximal lysis: 8.2-9.0
S. suis strain (7711); S. suis 7711, citrate/phosphate 4.6-8.0 and bis-tris-propane 7.0-9.7
  pH spectrum of lysis: 5.4-9.4
S. suis strain (7711); exposure to an excess of DTT (5 mM, 1 hr pre-incubation)
  effect of DTT on activity: did not negatively impact activity
S. suis strain (7711); exposure to an excess of EDTA
  effect of EDTA on activity: did not negatively impact activity
S. suis strain (7711); held at 35° C.-60° C. for 30 min before assay at 37° C.
  temperature at which activity is completely abolished: 50 °C
S. suis 5735 (ST2); 13 μg/ml
  percentage-decrease in CFUs, treated versus untreated (range of 3 experiments): 80.4%-92.6%
S. suis 5735 (ST2); 130 μg/ml
  percentage-decrease in CFUs, treated versus untreated (range of 3 experiments): 95.4%-99.5%
S. suis 5735 (ST2); 130 μg/ml, listed as PlySs1
  percentage-decrease in CFUs, treated versus untreated (range of 3 experiments): > 90%
S. suis 7711 (ST7); 13 μg/ml
  percentage-decrease in CFUs, treated versus untreated (range of 3 experiments): 0%-35.6%
S. suis 7711 (ST7); 130 μg/ml
  percentage-decrease in CFUs, treated versus untreated (range of 3 experiments): 95.3%-99.2%
S. suis 7711 (ST7); 130 μg/ml, listed as PlySs1
  percentage-decrease in CFUs, treated versus untreated (range of 3 experiments): > 90%
S. suis 7997 (ST9); 13 μg/ml
  percentage-decrease in CFUs, treated versus untreated (range of 3 experiments): 16.8%-30.3%
S. suis 7997 (ST9); 130 μg/ml
  percentage-decrease in CFUs, treated versus untreated (range of 3 experiments): 89.9%-93.9%
S. suis 7997 (ST9); 130 μg/ml, listed as PlySs1
  percentage-decrease in CFUs, treated versus untreated (range of 3 experiments): > 90%
S. pyogenes A486; 6.5 μg/ml
  1-hour treated/untreated OD600-ratio: 0.12
S. pyogenes A486; 13 μg/ml
  1-hour treated/untreated OD600-ratio: 0.13
S. pyogenes A486; 30 μg/ml
  1-hour treated/untreated OD600-ratio: 0.13
S. pyogenes A486; 65 μg/ml
  1-hour treated/untreated OD600-ratio: 0.11
S. pyogenes A486; 130 μg/ml
  1-hour treated/untreated OD600-ratio: 0.10
S. pyogenes D471; 6.5 μg/ml
  1-hour treated/untreated OD600-ratio: 0.39
S. pyogenes D471; 13 μg/ml
  1-hour treated/untreated OD600-ratio: 0.27
S. pyogenes D471; 30 μg/ml
  1-hour treated/untreated OD600-ratio: 0.17
S. pyogenes D471; 65 μg/ml
  1-hour treated/untreated OD600-ratio: 0.13
S. pyogenes D471; 130 μg/ml
  1-hour treated/untreated OD600-ratio: 0.09
S. equi 9528; 6.5 μg/ml
  1-hour treated/untreated OD600-ratio: 0.66
S. equi 9528; 13 μg/ml
  1-hour treated/untreated OD600-ratio: 0.45
S. equi 9528; 30 μg/ml
  1-hour treated/untreated OD600-ratio: 0.25
S. equi 9528; 65 μg/ml
  1-hour treated/untreated OD600-ratio: 0.19
S. equi 9528; 130 μg/ml
  1-hour treated/untreated OD600-ratio: 0.16
[1]; 6.5 μg/ml
  1-hour treated/untreated OD600-ratio: 0.69
[1]; 13 μg/ml
  1-hour treated/untreated OD600-ratio: 0.50
[1]; 30 μg/ml
  1-hour treated/untreated OD600-ratio: 0.33
[1]; 65 μg/ml
  1-hour treated/untreated OD600-ratio: 0.22
[1]; 130 μg/ml
  1-hour treated/untreated OD600-ratio: 0.15
S. mutans U159; 6.5 μg/ml
  1-hour treated/untreated OD600-ratio: 0.95
S. mutans U159; 13 μg/ml
  1-hour treated/untreated OD600-ratio: 0.99
S. mutans U159; 30 μg/ml
  1-hour treated/untreated OD600-ratio: 0.94
S. mutans U159; 65 μg/ml
  1-hour treated/untreated OD600-ratio: 0.76
S. mutans U159; 130 μg/ml
  1-hour treated/untreated OD600-ratio: 0.85
